In article PMC10853780:

Experiments:
[1] = target: HA-tagged DAXX (Y124A, R371W) (UniProt Q9UER7); assay: co-IP; as the DAXX-ATRX co-IP (anti-HA magnetic beads on SF188 cell extracts, ethidium bromide), proteins separated on a 16% acrylamide gel; immunoblot for DAXX, H3.3 and H4
[2] = target: HA-tagged DAXX (Y124A) (human) (UniProt Q9UER7); assay: co-IP; anti-HA magnetic beads (Pierce HA-Tag Magnetic IP/Co-IP Kit) on SF188 cell extracts (500 μg protein), 4 h at 4°C, 50 μg/ml ethidium bromide throughout, final wash with 200 mM NaCl; immunoblot for DAXX and ATRX

percent reduction of the interaction against DAXX WT [2] [%]	Substance	percent decrease of the interaction, corrected for the reduced stability of the mutant [1]
	H3.3-H4 heterodimer	its interaction with H3.3 and H4 was decreased by > 80%
> 95	alpha-thalassemia/mental retardation syndrome X-linked (ATRX), P46100 1-2492	
